# Source: patent US8518892B2, “Methods to treat symptoms of pathophysiology related to body mass” (Board of Supervisors of Louisiana State University and …, priority 2005, dated 2013)
# B1: Enho 1: human Enho 1, a 76 amino acid peptide having the sequence SEQ ID NO: 14 (peptide, listed as Homo sapiens)
# chain: MGAAISQGALIAIVCNGLVGFLLLLLWVILCWACHSRSADVDSLSESSPNSSPGPCPEKAPPPQKPSHEGSYLLQP
# How the values were obtained:
# KKAy mice = assay: Enho 1 ip for 3 days in KKAy mice (Examples 16-18); assay type: in vivo, mouse
# Description: (§1) The effect of Enho-1 upon weight loss was tested over the course of 3 days using KKAy mice. The mice were fed Breeder Chow (Purina 5015) and were approximately 12-14 weeks of age at the start of the experiment. Six control mice received vehicle only while six test mice each received doses of either 900 nmol/kg/d or 9000 nmol/kg/d. The injections were given as 3 intraperitoneal (ip) injections at 0600, 1400 and 2000 h on days 1 and 2; over the 3 day period, the mice received a total of 7 injections. All animals were euthanized 5 hours after the last injection given the morning of the third day. Food was removed after the final injection.
# as §1, with “insulin and glucose” for “weight loss”, “while five or” for “while”, “nmol/kg/d, respectively.” for “nmol/kg/d.”, “ip” for “intraperitoneal (ip)”, “injection. The HOMA-IR for each treatment was calculated using the following formula: ((glucose mg/dL÷18)×(insulin ng/ml×25.05))÷22.5” for “injection.”
# as §1, with “liver weight, liver lipid content and liver TG” for “weight loss”, “while five or” for “while”, “nmol/kg/d, respectively.” for “nmol/kg/d.”, “ip” for “intraperitoneal (ip)”
# obese (ob/ob) mice = assay: Enho 1 ip for 8 days in obese (ob/ob) mice, serum lipids (Example 22); assay type: in vivo, mouse
# Description: The effect of Enho-1 upon liver serum lipid content was tested over the course of 8 days using obese (ob/ob) mice. The mice were fed Research Diets 12450 and were approximately 9-10 weeks of age at the start of the experiment. Control mice received vehicle only while test mice each received doses of either 90 nmol/kg/d, 900 nmol/kg/d or 9000 nmol/kg/d. The injections were given as 3 ip injections at 0800, 1200 and 1600 h for 7 days. On day 8, the mice were given the 0800 h injection and were sacrificed 1-3 h later, at which time blood samples were taken.
# Blood glucose levels were measured using an Accu-Chek glucometer. Insulin levels were measured by ELISA (Mercodia Mouse Insulin ELISA, ALPCO) while triglycerides were measured using a Triglyceride L-Type TG H kit (Wako Diagnostics).
# [1] = 900 nmol/kg/d ip, listed as Enho-1
# [2] = 9000 nmol/kg/d ip, listed as Enho-1
# [3] = 90 nmol/kg/d ip, listed as Enho-1
molecule,measurement,setting,value
B1,Blood glucose,KKAy mice; 900 nmol/kg/d ip,474 mg/dL
same,HOMA-IR,KKAy mice; 900 nmol/kg/d ip,167
same,HOMA-IR decrease as compared to the control group,KKAy mice; 900 nmol/kg/d ip,29%
same,Insulin,KKAy mice; 900 nmol/kg/d ip,5.7 ng/mL
same,Liver TG,KKAy mice; 900 nmol/kg/d ip,40 mg/g
same,Liver TG total,KKAy mice; 900 nmol/kg/d ip,66 mg/g
same,Liver lipid,KKAy mice; 900 nmol/kg/d ip,82 mg/g
same,Liver lipid total,KKAy mice; 900 nmol/kg/d ip,137 mg/g
same,Liver weight,KKAy mice; 900 nmol/kg/d ip,1.6 g
same,Liver weight % body weight,KKAy mice; 900 nmol/kg/d ip,5.0%
same,Weight (pre-treatment),KKAy mice; 900 nmol/kg/d ip,35.3 g
same,Weight (termination),KKAy mice; 900 nmol/kg/d ip,33.0 g
same,blood glucose levels decrease,KKAy mice; 900 nmol/kg/d ip,approximately 10%
same,insulin levels reduction,KKAy mice; 900 nmol/kg/d ip,about 22%
same,liver TG reduction as compared to the control group,KKAy mice; 900 nmol/kg/d ip,32%
same,Blood glucose,KKAy mice; [1],474 ± 29 mg/dL
same,HOMA-IR,KKAy mice; [1],167 ± 18
same,HOMA-IR decrease as compared to the control group,KKAy mice; [1],(↓ 29%)
same,Insulin,KKAy mice; [1],5.7 ± 0.5 ng/mL
same,Liver TG,KKAy mice; [1],40 ± 8 mg/g
same,Liver TG total,KKAy mice; [1],66 ± 13 mg/g
same,Liver lipid,KKAy mice; [1],82 ± 9 mg/g
same,Liver lipid total,KKAy mice; [1],137 ± 18 mg/g
same,Liver weight,KKAy mice; [1],1.6 ± 0.1 g
same,Liver weight % body weight,KKAy mice; [1],5.0 ± 0.2%
same,Weight (pre-treatment),KKAy mice; [1],35.3 ± 1.1 g
same,Weight (termination),KKAy mice; [1],33.0 ± 1.0 g
same,Blood glucose,KKAy mice; 9000 nmol/kg/d ip,480 mg/dL
same,HOMA-IR,KKAy mice; 9000 nmol/kg/d ip,213
same,HOMA-IR decrease as compared to the control group,KKAy mice; 9000 nmol/kg/d ip,9%
same,Insulin,KKAy mice; 9000 nmol/kg/d ip,7.0 ng/mL
same,Liver TG total,KKAy mice; 9000 nmol/kg/d ip,53 mg/g
same,Liver lipid,KKAy mice; 9000 nmol/kg/d ip,87 mg/g
same,Liver lipid total,KKAy mice; 9000 nmol/kg/d ip,143 mg/g
same,Liver weight,KKAy mice; 9000 nmol/kg/d ip,1.6 g
same,Liver weight % body weight,KKAy mice; 9000 nmol/kg/d ip,4.9%
same,Weight (pre-treatment),KKAy mice; 9000 nmol/kg/d ip,35.6 g
same,Weight (termination),KKAy mice; 9000 nmol/kg/d ip,33.1 g
same,liver TG reduction as compared to the control group,KKAy mice; 9000 nmol/kg/d ip,46%
same,Liver TG,"KKAy mice; 9000 nmol/kg/d ip, P < 0.05 vs control",32 mg/g
same,Liver TG,"KKAy mice; 9000 nmol/kg/d ip, P < 0.05 vs control, listed as Enho-1",32 ± 5 mg/g
same,Blood glucose,KKAy mice; [2],480 ± 38 mg/dL
same,HOMA-IR,KKAy mice; [2],213 ± 37
same,HOMA-IR decrease as compared to the control group,KKAy mice; [2],(↓ 9%)
same,Insulin,KKAy mice; [2],7.0 ± 0.8 ng/mL
same,Liver TG total,KKAy mice; [2],53 ± 11 mg/g
same,Liver lipid,KKAy mice; [2],87 ± 6 mg/g
same,Liver lipid total,KKAy mice; [2],143 ± 17 mg/g
same,Liver weight,KKAy mice; [2],1.6 ± 0.1 g
same,Liver weight % body weight,KKAy mice; [2],4.9 ± 0.3%
same,Weight (pre-treatment),KKAy mice; [2],35.6 ± 0.6 g
same,Weight (termination),KKAy mice; [2],33.1 ± 0.4 g
same,TG (blood triglyceride level),obese (ob/ob) mice; 90 nmol/kg/d ip,19.4 mg/dL
same,TG decrease in comparison with the control,obese (ob/ob) mice; 90 nmol/kg/d ip,34%
same,TG (blood triglyceride level),obese (ob/ob) mice; [3],19.4 ± 2.2 mg/dL
same,TG decrease in comparison with the control,obese (ob/ob) mice; [3],(↓ 34%)
same,TG (blood triglyceride level),obese (ob/ob) mice; 900 nmol/kg/d ip,18.4 mg/dL
same,TG decrease in comparison with the control,obese (ob/ob) mice; 900 nmol/kg/d ip,38%
same,TG (blood triglyceride level),obese (ob/ob) mice; [1],18.4 ± 2.3 mg/dL
same,TG decrease in comparison with the control,obese (ob/ob) mice; [1],(↓ 38%)
same,TG (blood triglyceride level),obese (ob/ob) mice; 9000 nmol/kg/d ip,22.0 mg/dL
same,TG decrease in comparison with the control,obese (ob/ob) mice; 9000 nmol/kg/d ip,26%
same,TG (blood triglyceride level),obese (ob/ob) mice; [2],22.0 ± 2.2 mg/dL
same,TG decrease in comparison with the control,obese (ob/ob) mice; [2],(↓ 26%)
